Values belong to the molecule of their own block, whether it stands above or below them.
Experiments:
[1] = molecular target: mannosylated surface IgM (sIgM-Mann) of the FL-derived cell line WSU-FSCCL (human (endogenous in WSU-FSCCL)) (UniProt P01871)
[2] = molecular target: mannosylated surface IgM (sIgM-Mann) of the FL-derived cell line WSU-FSCCL (human (endogenous in WSU-FSCCL)) (UniProt P01871); remark: listed apart in the source
[3] = molecular target: DC-SIGN-HA (DC-SIGN fused to the HA epitope tag) (UniProt Q9NNX6); assay: SEC; analytical gel filtration of recombinant DC-SIGN-Fc and DC-SIGN-HA; data not shown; the high Stokes radius prevented a more accurate measurement of molecular mass
[4] = molecular target: T1, DC-SIGN-Fc (recombinant DC-SIGN fused to Fc), Q9NNX6; assay: as above; conditions: remark: other sources report otherwise
T1 chain: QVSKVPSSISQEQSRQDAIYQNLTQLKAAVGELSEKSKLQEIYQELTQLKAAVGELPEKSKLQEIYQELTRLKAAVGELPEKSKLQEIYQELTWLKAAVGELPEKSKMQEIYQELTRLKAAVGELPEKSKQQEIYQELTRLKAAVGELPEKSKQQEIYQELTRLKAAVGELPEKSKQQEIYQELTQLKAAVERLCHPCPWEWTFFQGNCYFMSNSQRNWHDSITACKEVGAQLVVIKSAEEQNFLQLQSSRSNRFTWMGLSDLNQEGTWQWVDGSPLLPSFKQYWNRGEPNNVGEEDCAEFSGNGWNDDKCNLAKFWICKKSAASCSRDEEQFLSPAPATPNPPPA

Chain of UniProt P01871 (P01871 whole entry, looked up, the tested form may be a part): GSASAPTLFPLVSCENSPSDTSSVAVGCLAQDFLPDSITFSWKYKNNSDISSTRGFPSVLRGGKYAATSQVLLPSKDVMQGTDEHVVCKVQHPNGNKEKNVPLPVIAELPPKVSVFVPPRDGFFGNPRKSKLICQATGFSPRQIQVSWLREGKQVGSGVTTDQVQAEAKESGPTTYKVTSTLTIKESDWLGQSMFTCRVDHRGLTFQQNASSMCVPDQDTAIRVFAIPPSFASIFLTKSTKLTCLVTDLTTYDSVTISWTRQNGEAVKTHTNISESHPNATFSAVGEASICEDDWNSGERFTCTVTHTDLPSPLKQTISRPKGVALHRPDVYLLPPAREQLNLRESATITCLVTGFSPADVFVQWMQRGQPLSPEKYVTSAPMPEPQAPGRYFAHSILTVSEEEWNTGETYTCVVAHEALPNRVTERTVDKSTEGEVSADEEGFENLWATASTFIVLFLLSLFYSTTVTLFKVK

inhibition of the anti-IgM-induced iCa2+ flux in WSU-FSCCL cells after pre-exposure to DC-SIGN-Fc [1]: 80% | recovery of the anti-IgM-induced iCa2+ response in WSU-FSCCL cells after removal of pre-bound DC-SIGN-Fc with mannan (15 or 30 min at 37 °C) [2]: 50%
Molecule: DC-SIGN-Fc (recombinant DC-SIGN fused to Fc) (from UniProt Q9NNX6 59-404) (Fc fusion)

inhibition of the anti-IgM-induced iCa2+ flux in WSU-FSCCL cells after pre-exposure to DC-SIGN-HA [1]: 50% | stoichiometry N [3]: > 4
Molecule: DC-SIGN-HA (DC-SIGN fused to the HA epitope tag) (from UniProt Q9NNX6 1-404) (natural protein)

stoichiometry N [4]: > 4
B1: DC-SIGN-Fc (recombinant DC-SIGN fused to Fc), Q9NNX6 59-404 (Fc fusion)
chain: T1 chain

From article PMC8175722
